Test results: PMC9481708

Biological target: And-1 HMG domain (UniProt O75717)
Assay: FLAG-SepB IP, GST-HMG blot
Details: reference: wild-type SepB; sites T826

Chain of UniProt O75717 (O75717 330-984 T826A): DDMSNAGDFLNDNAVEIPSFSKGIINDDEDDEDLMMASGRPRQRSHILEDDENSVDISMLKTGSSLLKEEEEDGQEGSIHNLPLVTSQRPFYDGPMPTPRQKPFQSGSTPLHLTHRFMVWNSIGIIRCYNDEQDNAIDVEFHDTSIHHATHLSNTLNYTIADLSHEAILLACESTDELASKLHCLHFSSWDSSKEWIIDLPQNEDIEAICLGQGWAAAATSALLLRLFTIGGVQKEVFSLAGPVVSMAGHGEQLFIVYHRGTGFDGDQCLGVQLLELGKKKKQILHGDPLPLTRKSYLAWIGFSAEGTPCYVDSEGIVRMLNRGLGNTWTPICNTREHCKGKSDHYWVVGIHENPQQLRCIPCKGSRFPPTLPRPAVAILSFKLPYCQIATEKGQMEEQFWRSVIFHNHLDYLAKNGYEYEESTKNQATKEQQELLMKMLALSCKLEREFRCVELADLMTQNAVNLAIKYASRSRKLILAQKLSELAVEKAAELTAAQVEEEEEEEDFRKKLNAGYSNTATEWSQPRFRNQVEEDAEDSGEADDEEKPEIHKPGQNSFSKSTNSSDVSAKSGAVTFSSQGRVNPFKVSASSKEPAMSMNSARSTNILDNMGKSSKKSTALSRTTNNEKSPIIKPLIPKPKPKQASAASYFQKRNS

binding against the reference: stronger
Substance: And-1 SepB domain, 330-984 (from UniProt O75717) SepB T826A
